The data set “crystal structure” concerns the molecule itself. In words: crystal structure.
The data set “AUC” concerns the molecule itself. In words: AUC.

B1: human Δ1-pyrroline-5-carboxylate dehydrogenase (HsP5CDH, ALDH4A1), residues 18-563, tag-free (enzyme, UniProt P30038 18-563, looked up)
chain: TGAGLRWKHTSSLKVANEPVLAFTQGSPERDALQKALKDLKGRMEAIPCVVGDEEVWTSDVQYQVSPFNHGHKVAKFCYADKSLLNKAIEAALAARKEWDLKPIADRAQIFLKAADMLSGPRRAEILAKTMVGQGKTVIQAEIDAAAELIDFFRFNAKYAVELEGQQPISVPPSTNSTVYRGLEGFVAAISPFNFTAIGGNLAGAPALMGNVVLWKPSDTAMLASYAVYRILREAGLPPNIIQFVPADGPLFGDTVTSSEHLCGINFTGSVPTFKHLWKQVAQNLDRFHTFPRLAGECGGKNFHFVHRSADVESVVSGTLRSAFEYGGQKCSACSRLYVPHSLWPQIKGRLLEEHSRIKVGDPAEDFGTFFSAVIDAKSFARIKKWLEHARSSPSLTILAGGKCDDSVGYFVEPCIVESKDPQEPIMKEEIFGPVLSVYVYPDDKYKETLQLVDSTTSYGLTGAVFSQDKDVVQEATKVLRNAAGNFYINDKSTGSIVGQQPFGGARASGTNDKPGGPHYILRWTSPQVIKETHKPLGDWSYAYMQ
As to B1, the “stoichiometry N” value in the data set “crystal structure” was determined as 2.

B2: Put2p mutant W193A, residues 23-575, His tag removed (enzyme, S. cerevisiae, UniProt P07275 23-575, looked up)
chain: KPPKHIRNEPVKPFRNIDLKDWDLLRASLMKFKSSSLEVPLVINGERIYDNNERALFPQTNPANHQQVLANVTQATEKDVMNAVKAAKDAKKDWYNLPFYDRSAIFLKAADLISTKYRYDMLAATMLGQGKNVYQAEIDCITELSDFFRYYVKYASDLYAQQPVESADGTANKAEYRPLEGFVYAVSPFNFTAIAANLIGAPALMGNTVVWKPSQTAALSNYLLMTVLEEAGLPKGVINFIPGDPVQVTDQVLADKDFGALHFTGSTNVFKSLYGKIQSGVVEGKYRDYPRIIGETGGKNFHLVHPSANISHAVLSTIRGTFEFQGQKCSAASRLYLPESKSEEFLSDMFGILQSQNVVPMNTSASPISGGNLRGFMGPVIHEQSFDKLVKVIEDAKKDPELEILYGGQYDKSQGWFVGPTVIKAKRPDHPYMSTEFFGPILTVYEYPDTEFNEICDIIDNTSQYALTGAIFAKDRKAIEYADEKLKFSAGNFYINDKCTGAVVSQQWFGGARMSGTDDKAGGPNILSRFVSIRNTKENFYELTDFKYPSNYE
As to B2, in the data set “AUC”, the “stoichiometry N” value amounted to 2.

By stoichiometry N is commonly meant a count of units in the complex or per binding partner.
